Data published in the nanobody polyreactivity screen of Harvey et al. (2022).

Experiment: yeast display, Sf9 membrane polyspecificity reagent, FACS + sequencing; frameworks hold sequencing errors
Outline: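 Sorting gates, low and high (top ~1%), were placed on anti-HA fluorescence to track expression and on streptavidin fluorescence to track reagent binding. A clone's polyreactivity label is taken from the gate it came out of. The reagent was 10% biotinylated, detergent-solubilized Sf9 membrane, applied for 1 hour at 4 °C to galactose-induced yeast display cells.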

Sequence	polyreactivity (PSR sort gate)
QVQLVESGGGIVQAGGSLRVSCAASGRTFYSSAMGWYRQAPGKERELVAAISWNGGSTYYADSVKGRFTISRDNAKNTVYLQMNSLNPEDTAVYYCAATYLLRGDAYYSWGQGTQVTVSS	high polyreactivity
QVQLVESGGGLVQAGGSLRLSCAPCGFTFRRNAMGWYRQAPGKERELVAAINWSGGSTYYADSVKGRFTLSRDNAKNNVYLQMNSLKPEDTAVYYCNRRGQYTFWPIHEYWGQGTQVTVSS	high polyreactivity
QVQLVESGGGLVQAGGSLRLSCAASGYILGVYAMGWYRQAPGKERDLVASISRSGGSTYYADSVKGRFTISRDNAKNTVYLQMNSLKTEDSAVYYCSNRSRTAHFRLRYDYWGQGTQVTVSS	low polyreactivity
QVKLVESGGGLVQAGGSLRLSCAASGFTFEEYAMGCYRQSPGKERELVAAISASGGRTYYADSVKRRFTISRDNAKNTVYLQMNSLKPEDTAVYYCAAGYRGRRIMDYWGQGTQVTVSS	high polyreactivity
QVQLVESGGGLVQAGGSLRLRCAASGFIFPQYAMGWYRQAPGKEREKVAAISWSGTRTYYADSVKGRFTISRDNAKNTVYLQMNSLKPEDTADYYCAARIDRQYRWTGFGYWGQGTQVTVSS	high polyreactivity
QVQLVESGGGLVQAGGSLRLSCAASGSTFWPNAMGWYRQAPGKERELVAGITTSSGSTFYAHSVKGRFTISRDNAKNTVYLQMNSLKPEDTAVYDCNARVRRRRYKYDYWGQGTQVTVSS	high polyreactivity
QVQLVESGGGLVQAGGSLRLSCAASGLTFPYYAMGWYRQAPGKERELVAGISDSGDSTYYADSVKGRFTISRDNAKNTVYLQMNSLKPEDTAVYYCNAYFRYSYDYWGQGTQVTVSS	high polyreactivity
QVQLVESGGGLVQAGGSLRLSCAASGSIFFYNTMGWYRQAPRKERELVAAISSSGRTYYADSVKGRFTISRDNAKNTVYLQMNSLKPEDTAVYYCAKRTWRGYDYWGQGTQVTVSS	high polyreactivity
QVQLVESGGGLVQAGGSLRLSCAASGRTFRQYAMGWYRQAPGKERELVATISSGGSTYYADSVKGRFTISRDNAKNTVYLHMNSLKPEDTAVYYCNAEGQWSRAPRDYWGQGTQVTVSS	low polyreactivity
QVQLVESGGGLVQAGGSLRLSCAASGSTFQLYAMGWYRPPPGTERELVAGISRDGSTYYADSVKARFSISRDNSKNTVYLQMNSLKPEDTAVYYCAAKYYGNKRDLYYWGQGTQVTVSS	low polyreactivity
QVQLVESGGGLVQAGGSLRLICAASGRIFYGYAMGWSRQAPGKERELVAAIRWSGGRTYYADSVKGRFTISRDNAKNTVYLQMNSLKPEATAVYYCAADYGYRSYVRFLSANYDYWGKGTQVTVSS	high polyreactivity
QVQLVESGGALVQAGGSLRLSCAASGSIFDQYTMRWYRQAPGKDRELVAAIRFSGGSTSYADSVKGRFTISRDNAKNTVYLQMNSLKPDDTAVYYCNADSQPWRFGYWGQGTQVTVSS	low polyreactivity
QVQLVESGGGLVQAVGSLRLSCAASGSTFDIYAMGWYRQAPGKERELVAAITSGGSTYADSVKGRFTISRDNAKNTVYLQMNSLKPEDTAVYYCNADRWFGNYLHLSFLNDYWGQGNQVTVSS	low polyreactivity
QVQLVESGGGLVQAGGSLRLSCAASGRTFFYNAMGWYRQAPGKERELVAAISSGGGSTYYADSVKGRFTISRDNAKNTVYLQMNSLKPEDTAVYYCNAYKGQTGGGGRYGYWGQGTQVTVSS	high polyreactivity
QVQVVDSGGGLVQAGGSLLLSCAASGSILGFNAMGWYRQSPGKEMELVASISSSGDSTYYADSEKGRFTISRDNAKNTVYLQMNSLKPEDTAVYYCATEGRTDYNREMEYWGQGSQVTVSS	low polyreactivity
QVQLVESGGGLVQAGGSLRLSCASSGSIFAGYAMGWYRQAPGKERELVATITSGGSTNYADSVKGRFTISRDNAKNTVYLQMNSLKPEDTAVYYCAADVEVSIPSSYTGGEYDYWGQGTQVTVSS	low polyreactivity
QVQLVESGGGLVQAGGSLRLTCAASGSIFRWNAMGWYRQAPGKERELVASITSGGSTYYADSVKGRFTISRDNAKNTVYLQMISLKPEDTAVYYCAAARYPGRKFDYWGQGTQVTVSS	high polyreactivity
QVQLVESGGGLLQAGGSLRLICAASGITFRYYTMGWYRQAPVKETELVAAITWSGSSTYYADSVKGRFTISRDNAKNTVYLQMNSLKPEDTAVYYCAKPYHQRSAKVDYWGQGTQVTVSS	low polyreactivity
QVQLVESGGGLVQAGGSLRLSCAASGLIFGLYSMGWYRQAPGKERELVAAISYRTDSTYADSVKGRFTISRDNAKNTVYLQMNSLKPEDTAVYYCAADLRVSVRYYYWGQGTQVTVSW	low polyreactivity
QVQLVESGRGLVQAGGSLRLSCAASGSIFRYNAMGWYRQAPGKERELVAAITRRGTSTYYADSVKGRFTISRDNAKNTVYLQKNSLKPEDTAVYYCAARYLYGVPVGGHGYWGQGTQVSVSS	high polyreactivity
QVQLVESGGGLDQAGGSLRLSCAASGFIFLDYAMGWYRRAPGKERELVAAISSRGARTYYADSVKGRFTISRDNAKNTFYLQMNSLKPEDTAVYYCAARGPLDRYGYWGQGTQVTVSS	high polyreactivity
QVQLVESGGGLVQAGGSLRLSCAASGFILEAYAMGWYRQAPGKERELVAAITRRGTRTYYADSVKGRFTLSRDNAKNTVYLQMNSLKPEDTAVYYCNAESRSTWVAGYDYWGQGTQVTVSS	high polyreactivity

Sequence	polyreactivity (PSR sort gate)
QVQLVESAAGLVQAGGSLRLSCAASGLNFASYGMGGYRQAPGKERELVAAISSSVGNTYYADSVKGRFTISRDYAKNTVYLQMNSLNPEDTAVYYCAAAKRSGYTGFKYYYWGQGTQVTVSS	high polyreactivity
QVQLVESGGGLVQAGGSLRLSCAATGSTFYQYALGWYRQAPGKERELVAAISSRGTSTYYADSVKGRFTISRDNAKNTVYLQMNSLKPEDTAVYYCATEYTNWHRTWSLQTGGYGYWGQGTQGTVSS	high polyreactivity
QVQLVETGGGLVQAGGSLRLSCAASGSTFTSNAMGWYRPAPGKERELVAAIDSSDGITYYADSVKGRFTISRDNAKNTVYLQMNSLKPEDTAVYYCAAEDYEAGYDYWGQGTQVTVSS	high polyreactivity
QVQIVESGGGLVQAGGSLRLSCAASGSIFPINAMGWYRQAPGKERELVAVITSGGGGTYYADCVKGRYTISRDNAKNTVYLQMNSLKPEDPAGYYCAKRLSRKWQKFGYWGQGTQVTVSS	low polyreactivity
QVQLVESGGGLVQAGGSLRLSCAASGSTLYHNAMGWYRQAPGKERELVAIINYSGDNTYYADSVKGRFTISRDNAKNTVFLQMNSLKPEDTAVYYCAADLYERGRQAWQYDYWGQGTQVTVSS	low polyreactivity
QVQLVESGGGLVQAGGSLRLSCAASGFIFGQYAMGWSRQAPGKERELVAAISSVGTTNYADSVKGRFTISRDNAKNTVYLQMNSLKPEDTAVYYCNAPVFYYWDYSYFPYEVDYWGQGTQVTVSS	low polyreactivity
QVQLVESGGGLVQAGGSLRLSCAASGLILVPNTMGWYRQAPGKESELVAAISDSGGGTYYADSVKGRFTISRDNAKNTVYLQMISLKPEDTAVYYCAAYGKRESAPYGYWGQGTQVTVSS	low polyreactivity
QVQLVESGGGLVQAGGSLRLCCAASGFTFSYYAMGGYRQAPGKERELVAAISRSGGRTYYADSVKGRFTISRDHAKNTVYVQMNSLKPEDTAVYSCAGVYFGSIFVLEYDYWGQGTQVTVSS	high polyreactivity
QVQLVESGGGLVQAGGSLRLSCAASGRIFVDYAMGWYRQAPGKERELVAAITRSGDRTYYADSVKGRFTISRDNAKNTVYLQMNSLKPEDTAVYYCATDYPGYDWGQGTQVTVSS	low polyreactivity
QVQLVDSGGGLVQAGGSLRFSCAASGSIFYSNAMGWYRQAPGKERELVAAISDGGTSTYYADSVKVRFTISRDNAKNTVYLQMNSLKPEDTAVYYCAAESTLQDWNWYKYYYWGQGTQVTVSS	low polyreactivity
QVQLVESGGGLVQAGGSLRLSCAASGSILAINAMGWYRQAPGKERELVAAINWSRGSTFYADSVKGRFTISRDNAKNTVYLQMNSLKPEDTAVYYCNVEWTDSERGDYYVDYDYWGQGTQVTVSS	low polyreactivity
QVQLVESGGGIVQAGGSLRLSCAASGYNFRSYVMGWYRQAPGKERELVAAISVSGGRTYYADSVKGRFTISRDNAKNTVYLQMNSLKPEDTAVYYCATDPYSYYWPSHMDYWGQGTQVTVSS	high polyreactivity
QVQLVESWGGLVQAGGSLRLSCAASGSTITAKAMGWYRQAPGKERELVAAITKSGGDTYYADSVKGRFTISRDNAKNTVYLQMNSLKPEDTAVYYCAARIRPYAYRSLYGYWGQGTQVTVSS	low polyreactivity
QVQLVESGGGLVQAGGSLRLSCAASGSTFDYNAMGWYRQAPGKERELVAAISRGGNTYYADSVKGRFTISRDNAKNTVYLQMNSLKPEDTAVYYCAKDSYGSYRFVRKRQKAYGYWGQGTQVTVSS	low polyreactivity
HVQVVESGGGLVQAGGSLRLSCAASGSTFPANAMGWYRQAPGKERELVAAISSSGGRTYYADSVKGRFTISRDNAQKTVYLQMNSLKPEDTAVYYCAAYGGGGYKYDYWGQGTQVSVSS	low polyreactivity
QVQLVESGGGLVQAGGSLRLSCAASGITFAYYAKAWYRQAPGKERELVAAINWSGGSTYYADSVKGRFTISRDNAKNTVYLQMNSLKPEDTAVYYCNAVPRRGYSRRDYWGQGTQVTVSS	high polyreactivity
QVQLVESGGGLVQAGGSLRLSCAASGSIFAGNVMGWYRQAPGKERELVAAISRRGGRTYYADSVKGRFTISRDNAKNTVYLQMNSLKPEDTAVYYCAARRDPVLGNSDFWGQGTQVTVSS	high polyreactivity
QVHLVESGGGLVQAGGSLRLSCAASGFTFRYYAMGSYRQAPGKERELVASIRRIGGSTYYADSVKGRFTISRDNAKNTVYLQMNSLKPDDTAVYYCAASTNFYYNPEYDSWGQGTQVTVSS	low polyreactivity
QVQLVESGGGLVQAGGSLRLTCAASGGIFQFYDMGWYRQAPGKERELVAAITSSGGSTYADSVKGRFTISRDNAKYTVYLQMNSLKPEVTAVYYCAASLVWEYAPGWRFKYGYWGQGTQVTVSS	high polyreactivity
QVQLVESGGGLVQAGGSLRLSCAASGRTFQYYAMGWYRQAPGKERELVAAISGIGTSTSYADSVKGRFTISRDNAKNTVYLQMNSLKPEDTAVYYCAARLLVPGSPWYTNYYWGQGTQVTVSS	low polyreactivity
QVQLVESGGGLVQAGGSLRLSCAASGRIFSKYTMGWYRQAPGKERELVAAISGSGTSTYYADSVKGRFTISRDNAKNTVYLQMNSLKPEDTAVYYCNAVKSWGHPGRYYWGQGTQVTVSS	high polyreactivity
